Laboratory results reported in patent US20170096479A1 (published 2017).
Changes are numbered by the printed parent chain. Names and notes keep the numbering of the source.

What was measured:
[1] = molecular target: T1, human VEGF (hVEGF) (human, UniProt P15692 181-395); experiment: cell-based or functional assay
T1 sequence: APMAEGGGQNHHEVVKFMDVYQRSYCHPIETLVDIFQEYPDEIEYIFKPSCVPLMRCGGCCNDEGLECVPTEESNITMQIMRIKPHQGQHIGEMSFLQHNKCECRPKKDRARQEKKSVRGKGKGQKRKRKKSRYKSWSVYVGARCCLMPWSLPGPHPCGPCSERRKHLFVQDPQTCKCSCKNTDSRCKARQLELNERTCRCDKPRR

[2] = molecular target: T1, human VEGF (hVEGF); experiment: SPR BIACORE kinetics
[3] = molecular target: human VEGF165 (human, UniProt P15692-4 27-191); experiment: cell-based or functional assay
[4] = molecular target: T1, human VEGF (hVEGF); experiment: SPR BIACORE T200, single cycle
Experimental: To confirm the results obtained from the deep mutagenesis scanning, selected mutations were expressed and purified, and their affinity towards VEGF was measured using BIACORE® surface plasmon resonance (SPR) and their thermostability (as assessed by melting temperature, Tₘ) was measured using differential scanning fluorimetry (DSF).
To determine the binding affinity of selected Fab variants, SPR measurement with a BIACORE® T200 instrument was used. Briefly, series S sensor chip CM5 was activated with 1-ethyl-3-(3-dimethylaminopropyl) carbodiimide (EDC) and N-hydroxysuccinimide (NHS) reagents according to the supplier's instructions, and human VEGF (hVEGF) was coupled to achieve 50-80 response units (RU), then following by blocking un-reacted groups with 1 M ethanolamine.
Three-fold serial dilutions of Fab in HBS-P buffer (0.01 M HEPES pH 7.4, 0.15 M NaCl, 0.005% surfactant P20) from low (0.02 nM) to high (50 nM) were injected (flow rate: 30 μl/min). The binding responses on hVEGF were corrected by subtracting of RU from a blank flow cell. The sensorgram was recorded and subject to reference and buffer subtraction before evaluating by BIACORE® T200 Evaluation Software (version 2.0). Association rates (kₒₙ) and dissociation rates (koff) were calculated using a simple one-to-one Langmuir binding model. The equilibrium dissociation constant (Kd) was calculated as the ratio koff/kₒₙ.

B1: G6.31 AAEE (LC-N94A.LC-F83A.HC-A40E.HC-T57E) (Fab, V domains shown)
VH: EVQLVESGGGLVQPGGSLRLSCAASGFTISDYWIHWVRQEPGKGLEWVAGITPAGGYEYYADSVKGRFTISADTSKNTAYLQMNSLRAEDTAVYYCARFVFFLPYAMDYWGQGTLVTVSS
VL: DIQMTQSPSSLSASVGDRVTITCRASQDVSTAVAWYQQKPGKAPKLLIYSASFLYSGVPSRFSGSGSGTDFTLTISSLQPEDAATYYCQQGYGAPFTFGQGTKVEIK
IC50 relative to G6.31, VEGF-induced HUVEC migration assay [1]: 0.9 relative to G6.31

B2: R19HCLC2 (Fab, V domains shown)
VH: B1 VH with V2E, S7E, G16E, T28E, K43E, K65E, K76E, S85E, T114E
VL: B1 VL with R18E, K42E, S76E
notes: Fab
Kd [2]: 0.0949 nM

B3: HA100K-G6.31 AARR (Fab, V domains shown)
VH: B1 VH with E40A, E58T, Y59R, N84R
VL: B1 VL
modifications: free hinge cysteine of the Fab-C heavy chain conjugated to maleimide-functionalized linear hyaluronic acid (Mw 100 kDa)
qAC50 (equivalent to IC50), pKDR receptor activation assay on KDR-CHO cells [3]: 0.135 nM

B4: G6.31 LC-Q89T (Fab, V domains shown)
VH: B1 VH with E40A, E58T
VL: B1 VL with A83F, Q89T, A94N
notes: Fab
kon [4]: 1.17e+08 M⁻¹ s⁻¹

B5: G6.31 HC-T57E (Fab, name in Kabat numbering, V domains shown)
VH: B1 VH with E40A
VL: B1 VL with A83F, A94N
notes: Fab
kon [4]: 1.93e+08 M⁻¹ s⁻¹

B6: G6.31 LC-N94A (Fab, V domains shown)
VH: B1 VH with E40A, E58T
VL: B1 VL with A83F
IC50 relative to G6.31, VEGF-induced HUVEC migration assay [1]: 5.2 relative to G6.31

B7: G6.31 LC-N94A.LC-F83A (Fab, V domains shown)
VH: B1 VH with E40A, E58T
VL: B1 VL
IC50 relative to G6.31, VEGF-induced HUVEC migration assay [1]: 5.1 relative to G6.31
